For the data set, the system named is full-length human Keratin 6.

This is an account of results in US20130086703.

As to Kgp, the “enzymatic degradation products detected by mass spectrometry (on spot profiling)” value was “peptides consisting of the amino acid sequences shown by SEQ ID NOs: 4 and 5 (peptides 6 and 7) were newly identified as Kgp degradation products of human Keratin 6”.
